Literature values, collected in US8541373B2, “BChE albumin fusions for the treatment of cocaine abuse” (priority 2009, dated 2013).

Conditions: cited from earlier work

| Molecule | kcat relative to wild-type BChE (cocaine hydrolase activity) | Catalytic efficiency relative to wild-type BChE (hydrolysis of cocaine) |
| --- | --- | --- |
| A328W/Y332A (protein, UniProt P06276 29-602, looked up, variant A328W Y332A) Cholinesterase: EDDIIIATKNGKVRGMNLTVFGGTVTAFLGIPYAQPPLGRLRFKKPQSLTKWSDIWNATKYANSCCQNIDQSFPGFHGSEMWNPNTDLSEDCLYLNVWIPAPKPKNATVLIWIYGGGFQTGTSSLHVYDGKFLARVERVIVVSMNYRVGALGFLALPGNPEAPGNMGLFDQQLALQWVQKNIAAFGGNPKSVTLFGESAGAASVSLHLLSPGSHSLFTRAILQSGSFNAPWAVTSLYEARNRTLNLAKLTGCSRENETEIIKCLRNKDPQEILLNEAFVVPYGTPLSVNFGPTVDGDFLTDMPDILLELGQFKKTQILVGVNKDEGTWFLVAGAPGFSKDNNSIITRKEFQEGLKIFFPGVSEFGKESILFHYTDWVDDQRPENYREALGDVVGDYNFICPALEFTKKFSEWGNNAFFYYFEHRSSKLPWPEWMGVMHGYEIEFVFGLPLERRDNYTKAEEILSRSIVKRWANFAKYGNPNETQNNSTSWPVFKSTEQKYLTLNTESTRIMTKLRAQQCRFWTSFFPKVLEMTGNIDEAEWEWKAGFHRWNNYMMDWKNQFNDYTSKKESCVGL | 40 fold |  |
| A227S/S315G/A356W/Y360G (protein, UniProt P06276 29-602, looked up, variant A227S S315G A356W Y360G) Cholinesterase: EDDIIIATKNGKVRGMNLTVFGGTVTAFLGIPYAQPPLGRLRFKKPQSLTKWSDIWNATKYANSCCQNIDQSFPGFHGSEMWNPNTDLSEDCLYLNVWIPAPKPKNATVLIWIYGGGFQTGTSSLHVYDGKFLARVERVIVVSMNYRVGALGFLALPGNPEAPGNMGLFDQQLALQWVQKNIAAFGGNPKSVTLFGESSGAASVSLHLLSPGSHSLFTRAILQSGSFNAPWAVTSLYEARNRTLNLAKLTGCSRENETEIIKCLRNKDPQEILLNEAFVVPYGTPLGVNFGPTVDGDFLTDMPDILLELGQFKKTQILVGVNKDEGTWFLVGGAPGFSKDNNSIITRKEFQEGLKIFFPGVSEFGKESILFHYTDWVDDQRPENYREALGDVVGDYNFICPALEFTKKFSEWGNNAFFYYFEHRSSKLPWPEWMGVMHGYEIEFVFGLPLERRDNYTKAEEILSRSIVKRWANFAKYGNPNETQNNSTSWPVFKSTEQKYLTLNTESTRIMTKLRAQQCRFWTSFFPKVLEMTGNIDEAEWEWKAGFHRWNNYMMDWKNQFNDYTSKKESCVGL |  | 500 fold |
